In paper PMC13379236 (Cell reports, 2026):
Residue numbers refer to the chain shown, from its start. Names may count otherwise. “Also recorded” adds a separate entry of the source.

B1: NLRP1 Gly/N-degron: C-terminal fragment generated by 3C cleavage, which exposes the Gly/N-degron, begins at glycine-131 (protein)
chain: GSERRVLRQLPDTSGRRWREISASLLYQALPSSPDHESPSQESPNAPTSTAVLGSWGSPPQPSLAPREQEAPGTQWPLDETSGIYYTEIREREREKSEKGRPPWAAVVGTPPQAHTSLQPHHHPWEPSVRESLCSTWPWKNEDFNQKFTQLLLLQRPHPRSQDPLVKRSWPDYVEENRGHLIEIRDLFGPGLDTQEPRIVILQGAAGIGKSTLARQVKEAWGRGQLYGDRFQHVFYFSCRELAQSKVVSLAELIGKDGTATPAPIRQILSRPERLLFILDGVDEPGWVLQEPSSELCLHWSQPQPADALLGSLLGKTILPEASFLITARTTALQNLIPSLEQARWVEVLGFSESSRKEYFYRYFTDERQAIRAFRLVKSNKELWALCLVPWVSWLACTCLMQQMKRKEKLTLTSKTTTTLCLHYLAQALQAQPLGPQLRDLCSLAAEGIWQKKTLFSPDDLRKHGLDGAIISTFLKMGILQEHPIPLSYSFIHLCFQEFFAAMSYVLEDEKGRGKHSNCIIDLEKTLEAYGIHGLFGASTTRFLLGLLSDEGEREMENIFHCRLSQGRNLMQWVPSLQLLLQPHSLESLHCLYETRNKTFLTQVMAHFEEMGMCVETDMELLVCTFCIKFSRHVKKLQLIEGRQHRSTWSPTMVVLFRWVPVTDAYWQILFSVLKVTRNLKELDLSGNSLSHSAVKSLCKTLRRPRCLLETLRLAGCGLTAEDCKDLAFGLRANQTLTELDLSFNVLTDAGAKHLCQRLRQPSCKLQRLQLVSCGLTSDCCQDLASVLSASPSLKELDLQQNNLDDVGVRLLCEGLRHPACKLIRLGLDQTTLSDEMRQELRALEQEKPQLLIFSRRKPSVMTPTEGLDTGEMSNSTSSLKRQRLGSERAASHVAQANLKLLDVSKIFPIAEIAEESSPEVVPVELLCVPSPASQGDLHTKPLGTDDDFWGPTGPVATEVVDKEKNLYRVHFPVAGSYRWPNTGLCFVMREAVTVEIEFCVWDQFLGEINPQHSWMVAGPLLDIKAEPGAVEAVHLPHFVALQGGHVDTSLFQMAHFKEEGMLLEKPARVELHHIVLENPSFSPLGVLLKMIHNALRFIPVTSVVLLYHRVHPEEVTFHLYLIPSDCSIRKAIDDLEMKFQFVRIHKPPPLTPLYMGCRYTVSGSGSGMLEILPKELELCYRSPGEDQLFSEFYVGHLGSGIRLQVKDKKDETLVWEALVKPGDLMPATTLIPPARIAVPSPLDAPQLLHFVDQYREQLIARVTSVEVVLDKLHGQVLSQEQYERVLAENTRPSQMRKLFSLSQSWDRKCKDGLYQALKETHPHLIMELWEKGSKKGLLPLSS
B2: E133K: E133K mutation of NLRP1 (residue E3 of the Gly/N-degron) (protein)
chain: B1 chain with E3K

System: ZYG11B
Type: cell-based, human

Molecule | binding to ZYG11B Extended Surface I mutants | binding to ZYG11B Gly-pocket mutants | binding to ZYG11B R466A (Extended Surface II) | interaction of NLRP1 mutants with ZYG11B
B1 | decreases the binding | abolishes the binding | relatively strong reduction | 
B2 |  |  |  | decreases the interaction; also recorded: reduced binding to ZYG11B
